This note sets out measurements from patent US20190031729A1 (Pieris, published 2019).

In the experiment the target is T1, cynomolgus LAG-3 on CHO cells (cynomolgus).
T1 construct: whole, on cells; also called CHO::cyLAG-3; CHO cells transfected with cynomolgus LAG-3
Kind of experiment: FACS on CHO cells transfected with cynomolgus LAG-3.

Description: 5×10⁴ cells per well were pre-incubated for 1 h in ice-cold PBS containing 5% fetal calf serum (PBS-FCS). […] Cells were washed twice in ice-cold PBS using centrifugation at 300×g and then incubated with a rabbit anti-lipocalin primary antibody (polyclonal rabbit anti-hTlc, Pieris) for 30 min on ice. Cells were then again washed twice in ice-cold PBS, re-suspended in PBS-FCS and incubated 30 min on ice with an antibody labelled with Alexafluor647 (Jackson Immunologics). Cells were subsequently washed and analyzed using intellicyt IQue Flow cytometer (Intellicyt). Fluorescent data generated by lipocalin mutein binding to LAG-3 expressing cells were analyzed using Forecyt software and resulted geometric fluorescent mean were plotted and fitted using Graphpad software.

B1: benchmark anti-LAG-3 antibody, BMS 986016 (SEQ ID NOs: 5 and 6) (antibody, V domains shown)
VH: QVQLQQWGAGLLKPSETLSLTCAVYGGSFSDYYWNWIRQPPGKGLEWIGEINHRGSTNSNPSLKSRVTLSLDTSKNQFSLKLRSVTAADTAVYYCAFGYSDYEYNWFDPWGQGTLVTVSS
VL: EIVLTQSPATLSLSPGERATLSCRASQSISSYLAWYQQKPGQAPRLLIYDASNRATGIPARFSGSGSGTDFTLTISSLEPEDFAVYYCQQRSNWPLTFGQGTNLEIKR
What is called EC50 is the concentration that produces a half-maximal response. On to B1, for which the midpoint of the response, the EC50, lay at 21 nM.
